What was measured:
[1] = target: full-length cyno SIRPα (XP_015313155, clone P3HD10), on CHO cells (cynomolgus monkey); test: flow cytometry on CHO cells expressing the target
[2] = target: full-length cyno SIRPβ1 (XP_005568598, clone PA2), on CHO cells (cynomolgus monkey); test: flow cytometry on CHO cells expressing the target
[3] = target: ED-tagged human SIRPα V2 receptor on Jurkat SIRPα-V2 signaling cells (human) (UniProt P78324); test: cell-based or functional assay
[4] = target: ED-tagged human SIRPα V1 receptor on Jurkat SIRPα-V1 signaling cells (human) (UniProt P78324); test: cell-based or functional assay
Sequence of ED-tagged human SIRPα V1 receptor on Jurkat SIRPα-V1 signaling cells (human) (P78324 31-504): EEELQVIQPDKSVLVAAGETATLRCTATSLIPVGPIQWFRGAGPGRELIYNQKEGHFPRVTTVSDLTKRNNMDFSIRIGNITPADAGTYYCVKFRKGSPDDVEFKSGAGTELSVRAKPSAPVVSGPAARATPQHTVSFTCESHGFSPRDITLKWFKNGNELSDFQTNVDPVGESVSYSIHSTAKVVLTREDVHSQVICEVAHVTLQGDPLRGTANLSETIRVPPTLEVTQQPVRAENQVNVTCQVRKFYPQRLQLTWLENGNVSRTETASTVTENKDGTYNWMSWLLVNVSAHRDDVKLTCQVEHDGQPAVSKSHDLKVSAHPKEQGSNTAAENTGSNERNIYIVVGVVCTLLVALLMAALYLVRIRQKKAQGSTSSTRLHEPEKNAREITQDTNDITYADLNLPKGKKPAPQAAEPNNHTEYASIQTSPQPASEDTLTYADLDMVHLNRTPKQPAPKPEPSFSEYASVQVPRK

Sequence of KWAR23 (antibody) (VH): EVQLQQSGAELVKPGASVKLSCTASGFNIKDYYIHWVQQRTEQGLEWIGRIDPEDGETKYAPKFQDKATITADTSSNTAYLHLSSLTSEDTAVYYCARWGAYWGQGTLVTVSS
Sequence of KWAR23 (antibody) (VL): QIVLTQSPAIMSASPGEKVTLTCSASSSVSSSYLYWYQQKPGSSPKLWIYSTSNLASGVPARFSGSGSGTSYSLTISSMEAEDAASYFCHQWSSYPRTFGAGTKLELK
Sequence of ED-tagged human SIRPα V2 receptor on Jurkat SIRPα-V2 signaling cells (human) (P78324 31-504): as the sequence (P78324 31-504) above

## KWAR23 (antibody)
[1]
  EC50: 0.5 nM
[2]
  EC50: 0.2 nM
[3]
  IC50 of SIRPα signaling (SHP-1 recruitment, enzyme fragment complementation, Jurkat reporter cells): 0.04 nM
[4]
  IC50 of SIRPα signaling (SHP-1 recruitment, enzyme fragment complementation, Jurkat reporter cells): 0.04 nM

Source: patent US20230203188A1
